B1: Peripheral plasma membrane protein CASK, residues 488 to 569; numbered along this chain, O14936 (parent)
chain: VRLVQFQKNTDEPMGITLKMNELNHCIVARIMHGGMIHRQGTLHVGDEIREINGISVANQTVEQLQKMLREMRGSITFKIVP

Variants of: B1
Assay: abundance fitness (aPCA) (normalised: wild type 0, dead -1); higher = more abundant; growth selection in yeast, the domain comes from the species named
Settings: Homo sapiens

Abundance fitness, by site and new letter:
I31: P -0.791; H -0.779; W -0.847; N -0.71; K -0.93; Q -1.04; V -0.057; F -0.331; D -0.61; G -1; E -0.777; R -0.869; S -0.859; L -0.058; Y -0.579; A -0.647
I27: C -0.16; T -0.021; Q -0.106; A -0.166; D -1.05; W -0.187; P -0.883; M -0.052; S -0.17; E -0.05; V -0.045; K -0.175; R -0.227; Y 0.007; F -0.08
A29: P -0.936; E 0.003; V -0.11; I -0.115; F -0.362; K -0.059; T -0.069; N -0.201; M -0.057; C -0.279; Q -0.008; Y -0.198; H -0.013; S -0.051; G -0.08; W -0.068; R -0.097; L -0.188
M32: N 0.062; W -0.045; V 0.027; R 0.003; D 0.051; G -0.093; Y -0.086; P -0.109; I 0.175; E 0.04; T 0.015; K 0.042; A 0.058; Q 0.001; F 0.086; L -0.083
C26: W -0.031; V 0.015; R -0.642; Y -0.07; Q -0.708; S -0.732
G35: W -0.422; H -0.068; I -0.843; C -0.066; T -0.013; A -0.098; D -0.236; M -0.128; Y -0.134; N -0.28; S 0.027; R -0.278; L -0.268; V -0.485; P -0.549; E -0.187; F -0.243
M36: Q -0.014; N -0.07; A 0.039; E 0.009; D -0.044; F 0.119; L 0.025; P 0.095; S 0.049; I 0.029; H 0.075; G -0.05; C -0.07; R -0.092
V28: A -0.479; Y -0.779; L -0.424; T -0.651; C -0.272; W -0.931; E -1.01; N -1.01; I 0.03; S -0.867; P -1.08; D -0.898; G -0.992; K -1.16
G34: K -0.177; I -0.478; N -0.016; M -0.259; F -0.385; T -0.126; R -0.194; V -0.447; D -0.032; H -0.052; P -0.373; Y -0.489; Q -0.151; L -0.261; A -0.247; C -0.252
R30: P -1.11; A 0.008; I -0.372; L -0.283; E 0.027; C -0.055; W -0.114; H 0.037; V -0.163; Y 0.015; K 0.069; M -0.112; D -0.012; F -0.083; S -0.007; Q -0.013; N 0.012; G -0.005
H33: C -0.033; P 0.009; W -0.16; I -0.006; L -0.119; S -0.008; K 0.01; D -0.011; R -0.006; Q 0.045; E 0.066; F -0.102; M -0.026; G -0.054; Y -0.107; V 0.003; T 0.005
